Test results reported in paper PMC12501149 (Proceedings of the National Academy of Sciences of the …, 2025).
Positions count from the first letter of the chain named.

Columns and labels:
[1] = biological target: full length TcdB (C. difficile, UniProt P18177 1-2366); test: SPR; conditions: both partners purified
[2] = biological target: TcdB 1285-1804 with C-terminal Avitag (RBD toxin fragment) (C. difficile, UniProt P18177 1285-1804); test: SPR; conditions: both partners purified
[3] = biological target: TcdB2 (TcdB 027) (C. difficile); test: cell-based or functional assay
[4] = biological target: T1, biotinylated RBD of TcsL (Paeniclostridium sordellii, UniProt Q46342 1-2364); test: SPR; conditions: both partners purified
T1 sequence (Q46342 whole entry): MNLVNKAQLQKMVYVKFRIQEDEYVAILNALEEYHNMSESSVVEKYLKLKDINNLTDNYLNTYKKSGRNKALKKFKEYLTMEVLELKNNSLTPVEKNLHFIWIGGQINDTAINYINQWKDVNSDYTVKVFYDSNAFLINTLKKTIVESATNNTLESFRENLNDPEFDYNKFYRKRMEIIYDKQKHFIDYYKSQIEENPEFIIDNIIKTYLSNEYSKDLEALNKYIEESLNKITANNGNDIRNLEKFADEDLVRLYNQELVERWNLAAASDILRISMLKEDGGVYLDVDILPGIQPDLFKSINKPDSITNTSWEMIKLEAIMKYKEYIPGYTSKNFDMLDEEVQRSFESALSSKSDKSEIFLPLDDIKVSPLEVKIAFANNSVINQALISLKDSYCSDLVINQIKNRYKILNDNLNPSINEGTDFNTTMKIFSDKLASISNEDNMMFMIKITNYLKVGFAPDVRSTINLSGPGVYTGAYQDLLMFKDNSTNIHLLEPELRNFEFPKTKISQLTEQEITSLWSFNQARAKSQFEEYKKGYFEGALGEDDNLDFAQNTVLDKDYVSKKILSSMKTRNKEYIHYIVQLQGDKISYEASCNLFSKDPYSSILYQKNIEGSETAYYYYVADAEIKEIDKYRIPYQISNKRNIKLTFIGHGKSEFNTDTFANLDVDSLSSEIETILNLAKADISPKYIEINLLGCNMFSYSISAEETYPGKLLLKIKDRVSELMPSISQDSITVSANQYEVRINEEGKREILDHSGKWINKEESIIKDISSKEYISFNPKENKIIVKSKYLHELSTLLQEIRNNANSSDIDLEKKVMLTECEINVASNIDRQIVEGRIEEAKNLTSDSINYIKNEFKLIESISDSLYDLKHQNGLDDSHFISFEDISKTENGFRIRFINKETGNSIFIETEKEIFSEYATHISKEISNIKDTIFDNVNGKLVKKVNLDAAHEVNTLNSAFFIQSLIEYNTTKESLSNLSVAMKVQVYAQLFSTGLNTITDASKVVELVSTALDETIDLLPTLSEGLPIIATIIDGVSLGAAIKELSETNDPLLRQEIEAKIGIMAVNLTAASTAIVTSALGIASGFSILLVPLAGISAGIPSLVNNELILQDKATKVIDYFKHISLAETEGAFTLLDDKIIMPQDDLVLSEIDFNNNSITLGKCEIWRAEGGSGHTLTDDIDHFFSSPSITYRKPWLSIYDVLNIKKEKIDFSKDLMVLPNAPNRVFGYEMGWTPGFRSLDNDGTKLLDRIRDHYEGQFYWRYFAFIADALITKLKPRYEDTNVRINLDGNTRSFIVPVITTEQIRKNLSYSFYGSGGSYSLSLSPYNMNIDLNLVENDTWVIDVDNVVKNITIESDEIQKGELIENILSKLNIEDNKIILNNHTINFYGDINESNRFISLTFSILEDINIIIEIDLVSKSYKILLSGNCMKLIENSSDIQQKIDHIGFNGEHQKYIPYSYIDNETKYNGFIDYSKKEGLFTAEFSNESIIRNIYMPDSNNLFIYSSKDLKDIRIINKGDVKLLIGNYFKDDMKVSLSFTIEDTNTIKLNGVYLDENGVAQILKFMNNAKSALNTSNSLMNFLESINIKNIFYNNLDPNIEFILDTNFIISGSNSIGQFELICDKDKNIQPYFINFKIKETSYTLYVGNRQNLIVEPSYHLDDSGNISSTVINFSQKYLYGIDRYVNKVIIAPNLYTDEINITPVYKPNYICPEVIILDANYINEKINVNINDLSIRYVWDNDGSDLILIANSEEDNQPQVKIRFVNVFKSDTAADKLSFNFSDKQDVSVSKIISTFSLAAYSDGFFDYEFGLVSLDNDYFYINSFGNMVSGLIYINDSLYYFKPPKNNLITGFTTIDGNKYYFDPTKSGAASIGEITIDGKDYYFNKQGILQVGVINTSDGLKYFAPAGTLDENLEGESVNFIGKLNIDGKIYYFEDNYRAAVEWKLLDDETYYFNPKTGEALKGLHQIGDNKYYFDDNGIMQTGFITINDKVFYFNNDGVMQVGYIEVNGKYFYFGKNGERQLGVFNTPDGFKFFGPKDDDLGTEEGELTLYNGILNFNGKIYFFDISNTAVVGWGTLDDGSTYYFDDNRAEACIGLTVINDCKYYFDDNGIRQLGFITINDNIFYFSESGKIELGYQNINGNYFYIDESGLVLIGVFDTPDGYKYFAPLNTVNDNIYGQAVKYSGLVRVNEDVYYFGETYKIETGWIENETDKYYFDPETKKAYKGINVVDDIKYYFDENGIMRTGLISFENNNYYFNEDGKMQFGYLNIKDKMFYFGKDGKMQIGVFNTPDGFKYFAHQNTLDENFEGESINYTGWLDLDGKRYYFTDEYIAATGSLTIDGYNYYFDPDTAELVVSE

[5] = biological target: T1, biotinylated RBD of TcsL; test: SPR; conditions: both partners purified; remark: listed apart in the source
[6] = biological target: T1, biotinylated RBD of TcsL; test: SPR; conditions: both partners purified; remark: listed apart in the source

Sequence of TcdB 1285-1804 with C-terminal Avitag (RBD toxin fragment) (P18177 1285-1804): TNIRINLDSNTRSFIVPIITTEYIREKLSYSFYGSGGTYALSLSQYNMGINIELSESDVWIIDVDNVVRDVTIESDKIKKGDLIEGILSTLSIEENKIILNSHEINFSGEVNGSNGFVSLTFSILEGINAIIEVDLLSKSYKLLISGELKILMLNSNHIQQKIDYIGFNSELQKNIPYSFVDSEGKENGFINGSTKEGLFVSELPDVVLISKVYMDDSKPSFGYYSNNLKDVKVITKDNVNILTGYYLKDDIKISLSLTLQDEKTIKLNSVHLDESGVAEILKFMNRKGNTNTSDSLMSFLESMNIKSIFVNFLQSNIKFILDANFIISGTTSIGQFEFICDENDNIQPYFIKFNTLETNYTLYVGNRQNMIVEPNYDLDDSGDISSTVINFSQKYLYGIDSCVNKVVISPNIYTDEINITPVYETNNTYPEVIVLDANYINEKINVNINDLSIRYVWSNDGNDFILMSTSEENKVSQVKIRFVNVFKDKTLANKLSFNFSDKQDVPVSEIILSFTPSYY

B1: cspg4 (designed binder)
chain: ENKLARAVVTVNKSWLATQLFVRLYRLCKAGDPRCEEVAEKLRKVLELQGVPETDIELVVEVAKG
B1 gave a Kd [1] of 1980 pM, a koff [1] of 0.0378 s⁻¹ and a kon [1] of 1.91e+07 M⁻¹ s⁻¹.

B2: fzd13 (designed binder)
chain: AEKEVQELIDKALNTPDPKVASKYIISAVYVAAKARDPSLFQSALDTAKKL
In the case of B2, the Kd [2] is reported as 5.55 pM, the koff [2] is reported as 0.00014 s⁻¹ and the kon [2] is reported as 2.53e+07 M⁻¹ s⁻¹.

B3: cspg67 (designed binder)
chain: AEELAKKLEEMAEVFKEKGDEEGAKECLKAAKIVRRSKNEEFGKWCIKKAEERLKKL
In the case of B3, the Kd [1] is reported as 1950 pM, the koff [1] is reported as 0.00387 s⁻¹ and the kon [1] is reported as 1.99e+06 M⁻¹ s⁻¹. For the same binder, the “IC50 of neutralization of TcdB2 in WT Vero cells (CSPG4-dependent entry), Figure S7B; 8-step 3-fold dilution series starting at 40 nM; mean across 2 independent replicates” value [3] was 1000 pM.

B4: fzd24 (designed binder)
chain: GEKSKLELLCKMLLTKAKLTGKQKYKNDLKELIEYLNEKGYPDLAKEASAKLEEI
For B4, the Kd [2] was 15.3 pM, the koff [2] was 0.000649 s⁻¹ and the kon [2] was 4.24e+07 M⁻¹ s⁻¹.

B5: F4 (designed binder)
chain: NEELIKEIKKLLKEGKPASEILELLKKAGKEEIAKEAEKAALSSYDMTKAAAEEAIKKLK
Binder B5 has a Kd [4] of 4230 pM, a Kd [5] of 4280 pM and a koff [5] of 0.00928 s⁻¹. It also gave a kon [5] of 2.17e+06 M⁻¹ s⁻¹.

B6: fzd48 (designed binder)
chain: KEELEKMIEELKKLIENGDKENFIKLFDEAFKKAKESRDPRTIASVWTLVLEFKNKN
B6 showed a Kd [2] of 0.00975 pM, a koff [2] of 3.33e-07 s⁻¹ and a kon [2] of 3.42e+07 M⁻¹ s⁻¹.

B7: ss2cspg18 (designed binder)
chain: MDEKVEKLKECLEKLKEKGDIKGVIDTERAIRICERSRHKEFCEWAIEKCENRIKES
notes: also called c18; dual disulfide version of cspg18
For B7, the Kd [1] was 865 pM, the koff [1] was 0.00164 s⁻¹ and the kon [1] was 1.9e+06 M⁻¹ s⁻¹.

B8: ss2cspg35 (designed binder)
chain: B7 chain with K4L, I21L, I25K, N52A
notes: also called dual disulfide version of cspg35
In the case of B8, the Kd [1] is reported as 480 pM, the koff [1] is reported as 8.03e-05 s⁻¹ and the kon [1] is reported as 167000 M⁻¹ s⁻¹.

B9: ss2cspg27 (designed binder)
chain: B7 chain with K4L, I25T, R29K, K49A, N52A
notes: also called c27; dual disulfide version of cspg27
In the case of B9, the Kd [1] is reported as 507 pM, the koff [1] is reported as 0.000101 s⁻¹ and the kon [1] is reported as 199000 M⁻¹ s⁻¹.

B10: B4 (designed binder)
chain: TEEIIKEIKKMKEKGEKASSIIDLLKKAGYSEIAKKAELAALKSENMTEAAAEKAIEELK
B10 was tested, and the Kd [5] was 56.9 pM, the koff [5] was 0.000112 s⁻¹ and the kon [5] was 1.98e+06 M⁻¹ s⁻¹.

B11: B4-M79 (designed binder)
chain: TEEIIKEIKKMKEKGEKASSIIDLLKKAGYSEIAKKAELAALKSENMTEAAAEKAIEELKGSQVKLEESGGGLVQAGGSLKLSCAASGSTFSSSSVGWYRQAPGQQRELVAAITSGGSTNTADSVKGRFTMSRDNAKNTVYLQMRDLKPEDTAVYYCNVAGRNWVPISRYSPGPYWGQGTQVTVSS
For B11, the Kd [6] was 9.9 pM.
